According to patent publication US11813280B2, “Reducing beta-catenin and IDO expression to potentiate immunotherapy” (Dicerna Pharmaceuticals, Inc., priority 2018, dated 2023):
“Also recorded” adds a separate entry of the source.

Columns and labels:
IDO2 = target: T1, IDO2 (Homo sapiens, UniProt Q6ZQW0); settings: Pendergast et al., Cancer Research, 2017; cited from earlier work
T1 sequence (Q6ZQW0 1-407): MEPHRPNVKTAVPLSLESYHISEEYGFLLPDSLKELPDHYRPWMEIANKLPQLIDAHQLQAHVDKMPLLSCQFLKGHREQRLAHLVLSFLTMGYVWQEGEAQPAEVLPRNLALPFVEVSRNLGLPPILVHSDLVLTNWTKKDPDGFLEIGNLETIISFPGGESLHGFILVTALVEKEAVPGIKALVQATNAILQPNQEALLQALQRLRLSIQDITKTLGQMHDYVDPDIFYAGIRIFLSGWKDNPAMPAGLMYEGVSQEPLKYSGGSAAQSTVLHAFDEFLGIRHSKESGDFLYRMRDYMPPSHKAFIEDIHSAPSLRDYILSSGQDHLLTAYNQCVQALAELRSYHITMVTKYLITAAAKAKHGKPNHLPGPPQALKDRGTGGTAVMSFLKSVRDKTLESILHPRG

advanced melanoma = settings: combined with pembrolizumab; Phase II study; cited from earlier work
[1] = Siu et al., AACR abstract CT116, 2017; cited from earlier work
IDO1 = IDO1 (Homo sapiens, UniProt P14902); settings: cited from earlier work
[2] = tested on: metastatic or recurrent squamous cell carcinoma of the head and neck, advanced urothelial cell carcinoma, and advanced renal cell carcinoma; settings: epacadostat combination; cited from earlier work
MMTV-Wnt tumors [3] = assay: Immunohistochemistry of MMTV-Wnt tumors for β-catenin, CD8 and IDO1; assay type: in vivo, mice; settings: tumors 24 hours after last dose
Procedure: (§1) In the MMTV-Wnt mouse model, mammary gland specific overexpression of Wnt1 with MMTV-LTR leads to spontaneous breast tumors with activated Wnt/β-catenin signaling. MMTV-Wnt mammary tumors spontaneously grow in mice in 3-6 months from the time of birth with Wnt pathway activation.
To see the effect of β-catenin inhibition on T cell infiltration and IDO1 levels in spontaneous tumors, the MMTV-Wnt1 model was used. The tumors were collected 24 hours after the last dose and subjected to immunohistochemistry to determine β-catenin, CD8, and IDO1 levels.
Tumors were collected 24 hours after the last dose and subjected to immunohistochemistry to determine β-catenin, CD8 and IDO1 levels.

4T1 tumors [4] = assay: Immunohistochemistry of 4T1 tumors for β-catenin, CD8 and IDO1; assay type: in vivo, Balb/C mice; settings: IDOi orally twice daily 100 mg/kg per dose days 6 and 8, tumors 48 hours after last dose, vs vehicle
B16F10 tumors [5] = assay: B16F10 tumor growth study; assay type: in vivo, C57BL/6 mice
Procedure: (§2) 6-8-week-old immunocompetent mice (C57BL/6 or Balb/C) were injected subcutaneously with 1.5×10^6B16F10 or 1.5×10^6 4T1 tumor cells under the right shoulder. Tumor volume was measured every 2-3 days a week to monitor tumor growth. Dosing was initiated when the tumors reached about 150-200 mm^3. […] BCAT1 formulated LNP or Placebo (scrambled CTNNB1 dsRNAi) formulated LNP was given intravenously via lateral tail vein at a total volume of 10 ml/kg. Immunotherapy treatments (anti-PD-1 antibody) were given intraperitoneally at a volume of 10 ml/kg.
(§3) Mouse cell lines B16F10 and 4T1 cells were obtained from ATCC (Manassas, Va.) and grown in RPMI/DMEM medium supplemented with 10% FBS. B16F10 cells is a murine melanoma cell line with no Wnt activation or IDO1 activation. 4T1 is a murine breast cell line with Wnt activation and constitutive activation of IDO1.
In a similar study, B16F10 tumor cells were implanted in C57BL/6 mice and at day 5 post-implant, the mice were randomized into two groups and treated with placebo or BCAT1. This dosing cycle was then repeated on days 11 and 12. Tumor growth was monitored by measuring the tumor sizes over the course of the treatment period. […] FIG. 6C.
Tumor growth was monitored by measuring the tumor sizes over the course of the treatment period. […] FIG. 8C. […]

B16F10 tumors [6] = assay: Immunohistochemistry of B16F10 tumors for β-catenin, CD8 and IDO1; assay type: in vivo, C57BL/6 mice; settings: IDOi orally twice daily 100 mg/kg per dose days 7 and 9, tumors 48 hours after last dose, vs vehicle
4T1 tumors [7] = assay: 4T1 tumor growth study; assay type: in vivo, Balb/C mice; settings: for anti-tumor efficacy (tumor volume): IDOi orally 100 mg/kg per dose twice daily days 4 and 6, BCAT1 iv 3 mg/kg days 5 and 6, anti-PD-1 antibody ip 5 mg/kg days 7 and 8, single, double or triple agents
Procedure: as §2, §3
In another study, 4T1 tumor cells were implanted in Balb/C mice and 4 days post-implant, the mice were randomized into two groups and treated with placebo or BCAT1. This dosing cycle was then repeated on days 9 and 10. Tumor growth was monitored by measuring the tumor sizes over the course of the treatment period. […] FIG. 1C.
(§4) Tumors were collected 48 hours after the last dose and were subjected to immunohistochemistry to look at β-catenin, CD8 and IDO1 levels. […] FIG. 3B. FIG. 3B. […] Tumor growth was monitored by measuring the tumor sizes over the course of the treatment period. […] FIG. 3C.

melanoma = settings: epacadostat in combination with the PD-1 inhibitors pembrolizumab and nivolumab; Phase I/II; cited from earlier work
multiple tumor types = assay: Delivery of LNP formulated BCAT1 to tumors in models; assay type: in vivo
From the text: The BCAT1 construct was formulated in EnCore lipid nanoparticles (LNP).

4T1 tumors [8] = assay: Immunohistochemistry of 4T1 tumors for β-catenin, CD8 and IDO1; assay type: in vivo, Balb/C mice; settings: BCAT1 3 mg/kg days 6, 7, 12, 13 post-implant, tumors 48 hours after last dose, vs placebo
Procedure: as §2, §3
Balb/C mice were implanted with 4T1 tumors. At six days post 4T1 tumor cell implantation, with the average tumor size of 150-200 mm^3, mice were sorted into two groups and were treated with either placebo or BCAT1 at 3 mg/kg on days 6 and 7 and days 12 and 13 post-implant, as shown in FIG. 1A. 48 hours after the last dose, tumors were collected and assayed by immunohistochemistry for β-catenin, CD8 and IDO1 protein levels.
as §4

B16F10 tumors [9] = assay: Flow cytometry of immune cell infiltrate in B16F10 tumors; assay type: in vivo, C57BL/6 mice; settings: BCAT1 3 mg/kg days 6, 7, 12, 13, tumors 24 hours after last dose
Procedure: A similar study was run to monitor the levels of immune cell infiltrate after two rounds of BCAT1 treatment. B16F10 tumors were treated with PBS, placebo, or BCAT1 at 3 mg/kg on days 6 and 7 post-implant and again on days 12 and 13 post-implant, as shown in FIG. 7A. Tumors were collected 24 hours after the last dose and were subjected to flow cytometry. […] The MDSC cell population was not altered. FIG. 7B.

B16F10 tumors [10] = assay: Immunohistochemistry of B16F10 tumors for β-catenin, CD8 and IDO1; assay type: in vivo, C57BL/6 mice; settings: BCAT1 3 mg/kg days 6, 7, 12, 13 post-implant, tumors 48 hours after last dose, vs placebo
Procedure: as §2, §3
C57BL/6 mice were implanted with B16F10 tumors. At six days post B16F10 tumor cell implantation, with the average tumor size of 200 mm^3, mice were sorted into two groups and were treated with either placebo or BCAT1 at 3 mg/kg on days 6 and 7 post-implant and again on days 12 and 13 post-implant, as shown in FIG. 6A. 48 hours after the last dose, tumors were collected and assayed by immunohistochemistry for β-catenin, CD8 and IDO1 protein levels. […] FIG. 6B.
Tumors were collected 48 hours after the last dose and were subjected to immunohistochemistry to analyze β-catenin, CD8 and IDO1 levels. […] FIG. 8B.

MMTV-Wnt tumors [11] = assay: MMTV-Wnt tumor growth study; assay type: in vivo, mice
Procedure: as §1
In another study, MMTV-Wnt tumor-bearing mice were treated with BCAT1 at 3 mg/kg on study days 1, 2, 6, and 7 and tumor growth was monitored.

4T1 tumors [12] = assay: Flow cytometry of surface markers in 4T1 tumors; assay type: in vivo, Balb/C mice; settings: BCAT1 3 mg/kg days 6, 7, 12, 13, tumors 24 hours after last dose, vs PBS
Procedure: In another similar study, mice bearing 4T1 tumors were treated with PBS or BCAT1 at 3 mg/kg on days 6 and 7 and days 12 and 13 post-implant, as shown in FIG. 2A. Tumors were collected 24 hours after the last dose and subjected to flow cytometry to measure surface markers on single-cell suspensions prepared from the extracted tumors. […] FIG. 2B. […] FIG. 2B. No effect was observed on the immunosuppressive MDSC cells. FIG. 2B.

[13] = IDOi 30 mg/kg per dose twice a day for 3 consecutive days
[14] = BCAT1 5 mg/kg per dose study days 1, 2, 3, 5 mg/kg

Sequence of IDO1 (P14902 whole entry, species assumed): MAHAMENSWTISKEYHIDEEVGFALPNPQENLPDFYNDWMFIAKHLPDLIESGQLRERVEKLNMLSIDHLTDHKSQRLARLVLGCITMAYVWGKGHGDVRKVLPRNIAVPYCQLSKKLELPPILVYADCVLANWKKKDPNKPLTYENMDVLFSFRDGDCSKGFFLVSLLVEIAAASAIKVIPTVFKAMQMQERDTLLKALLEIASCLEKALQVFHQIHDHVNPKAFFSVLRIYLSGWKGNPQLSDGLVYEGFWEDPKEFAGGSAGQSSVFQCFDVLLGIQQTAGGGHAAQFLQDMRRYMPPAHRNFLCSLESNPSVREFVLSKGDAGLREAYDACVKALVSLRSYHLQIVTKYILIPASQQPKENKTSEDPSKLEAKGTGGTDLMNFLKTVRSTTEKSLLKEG

## Cn1cc(C[C@@H](N)C(=O)O)c2ccccc21 [indoximod, 1-methyl-D-tryptophan]
IDO2
  inhibition of IDO2: indirectly inhibit IDO2
Advanced melanoma
  efficacy in patients with advanced melanoma: shown efficacy

## C[C@@H](C(=O)Nc1ccc(Cl)cc1)C1CCC(c2ccnc3ccc(F)cc23)CC1 (some centres unmarked) [BMS-986205]
[1]
  tolerability in patients with advanced cancers: safely tolerated

## O=C1CC(c2c[nH]c3ccc(F)cc23)C(=O)N1 (centres unmarked) [PF-06840003]
IDO1
  enzymes targeted / inhibited (IDO1, TDO): selectively target IDO1

## NS(=O)(=O)NCCNc1nonc1C(=NO)Nc1ccc(F)c(Br)c1 [IDOi, epacadostat]
[2]
  efficacy in other tumors: shown efficacy
MMTV-Wnt tumors [3]; [13]
  CD8 levels (immunohistochemistry): increases
  IDO1 levels (immunohistochemistry): reduced the IDO1 levels almost completely; also recorded: reduces
  β-catenin levels (immunohistochemistry): increases
4T1 tumors [4]
  CD8 levels / CD8 T-cell infiltration (immunohistochemistry): only modestly altered; also recorded: increases
  IDO1 levels (immunohistochemistry): reduced the IDO1 levels almost completely; also recorded: decreases
  β-catenin levels (immunohistochemistry): only modestly altered; also recorded: decreases
B16F10 tumors [5]; IDOi twice daily 100 mg/kg per dose days 7 and 9, 100 mg/kg
  tumor growth inhibition vs vehicle: did not result in any significant tumor growth inhibition; also recorded: does not significantly inhibit tumor growth
B16F10 tumors [6]
  CD8 levels / CD8 T-cell infiltration (immunohistochemistry): increases
  IDO1 levels (immunohistochemistry): reduced the IDO1 levels almost completely; also recorded: decreases
  β-catenin levels (immunohistochemistry): decreases
4T1 tumors [7]; IDOi alone twice daily at 100 mg/kg per day on days 6 and 8 post-implant, 100 mg/kg/day
  tumor growth as compared to placebo: tumor growth inhibition; also recorded: inhibits tumor growth
4T1 tumors [7]
  anti-tumor efficacy (tumor volume): modest anti-tumor efficacy
melanoma
  clinical results in patients with melanoma: positive early results

B1: BCAT1: nucleic acid inhibitor molecule targeting the β-catenin gene; sense strand SEQ ID NO:1, antisense strand SEQ ID NO:2; formulated in EnCore lipid nanoparticles (nucleic acid)
sense: AGAAUACAAAUGAUGUAGAAACAGCC
antisense: UAGCUAUCGTGGCUGUUUCUACAUCAUUUGUAUUCUGC
modifications: formulated in lipid nanoparticles, chemistry not given here
Multiple tumor types; HCT116, DLD1, HL60
  Delivery of BCAT1 to Various Tumor Types: Negative: HCT116, DLD1, HL60
Multiple tumor types; LNP formulated BCAT1, tumor types of Table I (subcutaneous, orthotopic, disseminated, metastatic xenograft, PDX, GEM)
  Delivery of BCAT1 to Various Tumor Types: effectively deliver the nucleic acid payload to multiple tumor types
4T1 tumors [8]
  CD8 protein levels / CD8 T-cell infiltration (immunohistochemistry): increases
  IDO1 protein levels (immunohistochemistry): did not reduce the IDO1 levels significantly; also recorded: does not significantly reduce
  β-catenin protein levels (immunohistochemistry): decreases
B16F10 tumors [9]
  CD8 T cells, flow cytometry: elevated; also recorded: increases
  LAG-3 checkpoint, flow cytometry: elevated; also recorded: increases
  MDSC cell population, flow cytometry: not altered; also recorded: does not significantly alter
  PD-1 checkpoint, flow cytometry: elevated; also recorded: increases
  Tim-3 checkpoint, flow cytometry: elevated; also recorded: increases
B16F10 tumors [9]; as compared to PBS
  level of Tregs, flow cytometry: did not significantly change; also recorded: does not significantly alter
B16F10 tumors [10]
  CD8 protein levels / CD8 T-cell infiltration (immunohistochemistry): increases
  IDO1 protein levels (immunohistochemistry): decreased; also recorded: reduces
  β-catenin protein levels (immunohistochemistry): decreases
MMTV-Wnt tumors [3]; [14]
  CD8 levels / CD8 T-cell infiltration (immunohistochemistry): increases
  IDO1 levels (immunohistochemistry): unchanged; also recorded: does not significantly reduce
  β-catenin levels (immunohistochemistry): decreases
MMTV-Wnt tumors [11]; BCAT1 alone 3 mg/kg study days 1, 2, 6, 7
  tumor growth inhibition: about 50%
MMTV-Wnt tumors [11]; two cycles of BCAT1 treatment
  tumor growth as compared to placebo: inhibits tumor growth
4T1 tumors [12]
  LAG-3 checkpoint, flow cytometry: significant increases
  MDSC cells, flow cytometry: No effect; also recorded: does not significantly alter
  PD-1 checkpoint, flow cytometry: significant increases
  Regulatory T cells (Tregs), flow cytometry: significantly increased; also recorded: increases
  Tim-3 checkpoint, flow cytometry: significant increases
  cytotoxic T-cells (CD8+), flow cytometry: significant increases
B16F10 tumors [5]; BCAT1 single agent 3 mg/kg days 5, 6, 11, 12
  tumor growth as compared to placebo: did not significantly inhibit tumor growth; also recorded: does not significantly inhibit tumor growth
4T1 tumors [7]; BCAT1 alone 3 mg/kg days 4, 5, 9, 10, vs placebo
  tumor growth inhibition: about 40%
4T1 tumors [7]
  anti-tumor efficacy (tumor volume): modest anti-tumor efficacy
4T1 tumors [7]; two cycles of BCAT1 treatment
  tumor growth as compared to placebo: inhibits tumor growth
